Changes are numbered by the printed parent chain. Values belong to the binder of their own block, whether it stands above or below them.
Assays:
[1] = biological target: T1, native human CD22 (hCD22) (human, UniProt P20273 20-847); assay: hybridoma screen on CD22-transfected mouse L cells
T1 construct: On Raji and Ramos Burkitt lymphoma cells (Scatchard analysis, flow cytometry) and on mouse L cells transfected with full-length CD22 cDNA (hybridoma screen)
Excerpt: Monoclonal antibodies (mAbs) HB22-7 (IgG2b), HB22-23 (IgG2a), HB22-33 (IgM), HB22-5 (IgG2a), HB22-13 (IgG2a), HB22-22 (IgA), and HB22-196 were produced according to the method of Engel et al., J Immunol 15:4710 (1993) and U.S. Pat. No. 5,484,892. See, also Tuscano et al, Blood 94:1382-1392 (1999). However, other methods may be used. Briefly, the HB22 mAbs were produced via hybridoma techniques using a mouse pre-B cell line 300.19, stably transfected with full length CD22 cDNA, as the immunogen. More specifically, thirty-three mAbs reactive with CD22 were generated by the fusion of NS-1 myeloma cell with spleen cells from Balb/c mice immunized three times with a mouse pre-B cell line, 300.19, stably transfected with a full-length CD22 cDNA. Hybridomas producing mAb reactive with mouse L cells transfected with CD22 cDNA, but not with untransfected cells, were cloned twice and used to generate supernatant or ascites fluid. mAb isotypes were determined using the Mouse Monoclonal Antibody Isotyping Kit (Amersham, Arlington Heights, Ill.). IgGmAb were purified using the Affi-Gel Protein A MAPS II Kit (Bio-Rad, Richmond, Calif.).

[2] = biological target: T1, native human CD22 (hCD22); assay: Scatchard analysis, Raji against Ramos cells
Method: Cell lines and Scatchard Analysis. Raji and Ramos Burkitt lymphoma, cell lines were purchased from American Type Culture Collection (ATCC, Manassas, Va.). Both cell lines stained for CD22 expression by flow cytometric methods utilizing the HB22-7 mAb, as described previously (Tuscano et al., supra). The cell lines were maintained in RPMI 1640 supplemented with 10% fetal calf serum at 0.5 times. 10⁶ cells/ml. A Scatchard analysis using Raji and Ramos cells was performed as described previously (Scatchard, G., Ann. of NY Acad Sci. 51:660 (1947)). Briefly, HB22-7 was labeled with ¹²⁵ I by the chloramine T method (specific activity of […]). A competitive binding assay was performed utilizing serially diluted, unlabeled HB22-7.
Scatchard analysis was utilized to assess the binding affinity of HB22-7 and the number of CD22 receptors on Ramos and Raji cells. The cells were assayed for maximum, binding percentage (Bmax), disassociation constant (Ka) and number of antibodies bound per cell. The results shown in Table 1 are the average of two experiments.

T1 sequence (P20273 other isoform, or with tags, fused parts or gaps limits assumed): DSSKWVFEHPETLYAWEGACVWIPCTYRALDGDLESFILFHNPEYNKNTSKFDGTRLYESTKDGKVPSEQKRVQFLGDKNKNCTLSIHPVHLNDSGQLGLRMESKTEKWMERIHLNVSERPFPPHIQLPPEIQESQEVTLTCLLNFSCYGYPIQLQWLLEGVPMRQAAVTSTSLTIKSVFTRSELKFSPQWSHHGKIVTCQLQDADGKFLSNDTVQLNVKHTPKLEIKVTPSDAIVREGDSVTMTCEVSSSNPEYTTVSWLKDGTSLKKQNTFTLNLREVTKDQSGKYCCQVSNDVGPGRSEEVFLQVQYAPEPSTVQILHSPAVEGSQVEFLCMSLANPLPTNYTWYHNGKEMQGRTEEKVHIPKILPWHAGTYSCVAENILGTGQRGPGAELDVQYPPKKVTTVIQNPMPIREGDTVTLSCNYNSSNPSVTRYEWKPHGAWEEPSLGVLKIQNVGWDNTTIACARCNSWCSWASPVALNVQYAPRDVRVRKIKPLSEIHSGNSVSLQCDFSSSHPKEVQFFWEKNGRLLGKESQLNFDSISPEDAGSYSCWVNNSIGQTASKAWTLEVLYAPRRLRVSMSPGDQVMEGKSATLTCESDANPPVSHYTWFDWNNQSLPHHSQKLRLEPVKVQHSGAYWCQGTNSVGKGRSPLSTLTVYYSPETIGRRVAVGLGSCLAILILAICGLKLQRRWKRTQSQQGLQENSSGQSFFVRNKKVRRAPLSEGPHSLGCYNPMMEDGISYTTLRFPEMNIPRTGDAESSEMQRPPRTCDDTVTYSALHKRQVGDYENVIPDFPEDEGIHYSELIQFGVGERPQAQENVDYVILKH

- binding result [1]: binds
B1: anti-CD22 monoclonal antibody HB22-33 (antibody, V domains shown)
VH: EVQLQESGPGLVKPSQSLSLTCSVTGYSITSGYYWNWIRQFPGNKLEWMGYIRYDGSNNYNPSLKNRISITRDTSKNQFFLKLNSVTTEDTATYYCARGGITVAMDYWGQGTSVTVSS
VL: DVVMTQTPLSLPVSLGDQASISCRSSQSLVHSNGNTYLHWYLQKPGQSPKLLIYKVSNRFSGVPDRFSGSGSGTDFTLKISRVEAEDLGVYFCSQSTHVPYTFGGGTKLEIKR

- binding result [1]: binds
B2: anti-CD22 monoclonal antibody HB22-5 (antibody, V domains shown)
VH: EVQLQESGPELVKPGASMKISCKASGYSFTDYTMNWVKQSHGKNLEWIGLLHPFNGGTSYNQKFKGKATLSVDKSSSTAFMELLSLTSEDSAVYFCARGTGRNYAMDYWGQGTSVTVSS
VL: SIVMTQTPKFLLVSTGDRVTITCKASQTVTNDLAWYQQKPGQSPKLLIYYASNRYTGVPDRFTGSGYGTDFTFTINTVQAEDLAVYFCQQDYSSPLTFGAGTKLELKR

- binding result [1]: binds
B3: anti-CD22 monoclonal antibody HB22-13 (antibody, V domains shown)
VH: EVQLQESGGGLVQPGGSLRLSCATSGFTFIDYYMNWVRQPPGKALEWLGFIKNKFNGYTTEYNTSVKGRFTISRDNSQSILYLQMNTLRAEDSATYYCARGLGRSYAMDYWGQGTSVTVSS
VL: B2 VL with T15A, T20S, T28S, L33V, A34T, Y50F, N76S

- fold increase in Ka, Raji cells versus Ramos cells [2]: 2 fold
- fold increase in antibodies bound per cell and Bmax, Raji cells versus Ramos cells [2]: ~2.5 fold
B4: anti-CD22 monoclonal antibody HB22-7 (antibody, V domains shown)
VH: EVQLQESGPGLVAPSQSLSITCTVSGFSLSDYGVNWVRQIPGKGLEWLGIIWGDGRTDYNSALKSRLNISKDNSKSQVFLKMNSLKADDTARYYCARAPGNRAMEYWGQGTSVTVSS
VL: B2 VL with T15A, V19I, I21L, T28S, L33V, N76S, S93R, L96W, A100G, L106I
notes: Labelled with 125I for the Scatchard assay; also called HB11347; anti-CD22 mAb

Source: patent US20120301472A1 (DUKE UNIVERSITY, published 2012)
